Assay results from patent US20090162848A1, “Noxin, a novel stress-induced gene involved in cell cycle and apoptosis” (COLD SPRING HARBOR LABORATORY, priority 2007, published 2009).

How the values were obtained:
NIH3T3 cells [1] = experiment: BrdU incorporation (DNA synthesis) in transfected versus untransfected NIH3T3 cells; format: cell-based, mouse; details: BrdU labeling for 24 h
Experimental: In addition, constructs coding for cyan fluorescent protein with a nuclear localization signal (CFP-nuc), yellow fluorescent protein fused to actin (YFP-actin), or vector construct alone were used as controls. Cells were then labeled with BrdU for 24 h and analyzed cells in situ by immunocytochemistry for BrdU and noxin (or other listed proteins) (FIG. 11A-C). In the figures, signals from anti-FLAG antibodies are seen in red; anti-BrdU antibodies are green; Hoechst 33342 (blue) was used for nuclear counter-staining. […] Recombinant protein was detected on a Western blot using the anti-FLAG antibody.

NIH3T3 cells [2] = experiment: Cell cycle distribution of pFLAG-noxin transfected cells by flow cytometry; format: cell-based, mouse; details: anti-FLAG staining, DNA content
Experimental: After transfection with pFLAG-noxin or pcDNA3 vector, cell division was arrested with three different treatments (nocodazole, aphidicolin, or low concentration of serum). Cells were stained with anti-FLAG antibody and FITC-conjugated anti-mouse IgG antibody after permeabilization. Cell cycle distributions of untransfected and transfected cells were analyzed by DAPI staining and flow cytometry.

[3] = test system: MEFs from p53-deficient mice; experiment: DNA synthesis in p53-deficient MEFs expressing noxin; format: cell-based, mouse
Experimental: Noxin action was also analyzed in p53-deficient MEFs.

p53 = p53 levels in transfected cells by immunocytochemistry and flow cytometry; format: cell-based
Experimental: The cells were labeled with […] (BrdU) (10 μM) and incubating for the time periods indicated. The cells were collected from plates by trypsin digestion were suspended in saline and fixed with 70% ethanol. After washing with PBS containing 0.05% BSA, 1×10^6 cells were incubated with FITC-conjugated anti-BrdU antibody (Pharmingen, 1:500) for 1 hr, suspended in PBS-BSA with 5 μg/ml propidium iodide (PI) and 20 μg/ml RNase A, and incubated further for 30 min at room temperature. For the bivariate cell cycle analysis, cells were analyzed using LSRII flow cytometer ([…]). […] Cells were analyzed for PE, FITC, and GFP fluorescence by flow cytometry.
Cells were transfected with pFLAG-noxin- or GFP-expressing plasmids and the levels of p53 were determined using immunocytochemistry and flow cytometry. […] 13a-c: which were stained with anti-FLAG and anti-p53 primary antibodies and ALEXA Fluor 596- and 488-conjugated secondary antibodies, respectively. […] 14a-d: Cells transfected with pFLAG-noxin (upper panels) and pEGFP (taken as control; lower panels) that were stained with anti-FLAG and anti-p53 primary antibodies, and PE- and FITC-conjugated secondary antibodies. Then Noxin-FLAG- or EGFP-negative (left panels) and positive (right panels) cells were analyzed for the amount of p53 protein.

B1: noxin: noxin tagged with the FLAG epitope at its N-terminus, expressed from plasmid pFLAG-noxin (mouse, SEQ ID NO: 2) (protein)
chain: MNKRRKFLFASVLAVQNSNFIYPSCQRCFSKIILESKRFTCPKCGSSGDTGSTNYRYKLSLKVAESSKLFFITVFGSCLDTFFGLTATGLHRYLEDSIKNLETLDSGRTQSLLTTAVEKCFVGQSFVFGVTNFGDVCGHDSDSSNFQQPCCKHRGEVRTLVASQIILPSPHVKGFTVIAYLHPLLHKKPHCGSQEHSSQSLTSDDSDSDLNNIQGSGNTSWFSESSVGEDFFRYWEPSLELTSSDSQVTSSDDFPASKQIMASGTPNQNRHCISVSEVTSSKNCHDSLQSLWSLHSCMDKNNTTGKLGEELGLPSPVCNSCHESRLSDSHFFPSQMQEPFEEHNLECYSKAEKNDYSQYDIACYQHHEVNTTPILQQRSSAFSLSSLKPEETANPSQNSDSLIWDDLPLSESLNKFLAVVESEVAVTEIDAKNRKQGMDKSIDKCHKNYSRLSLTPWRNTRALNTSCFSLRSSQAMMKDSGKEALFSNCKSNSSPHIQKESKADKTEAAVSIAGSRSDISEDFLPDTCSSALFTSSKDREAFITQKRTSGVLQQRNEISCRPSTSISDCSDLRSRYFTGCGQKLHSGTKGKLAIQNCSKKYSDASDLHKLENKHRWPKKEDDNFTICRKLTYPLETLCSSPESINTSKEMPYRPSNNNLTPSSSGDHEGSYNASAGLFDYIAKDKDIGTEITKIPQDNLLPLEVPCTENYPINENRGQPSQKPSLQSISPSRYSRPRSQSDSECDFEESQDFVPCSQSTPVAGFHQRIHGLNGASKILPSIYSNHNANYKNRKNSPLTGQYQATSACSKNVKAFRQKPESPFVSSLTQANVFNHCPAAESLGNDVDEWVPPTTKKVFISDILGFRVMGLRKCLDLHYSPDPKELPRKKLIKVTHKTNI
modifications: left off: small tags and cut ends
fraction of BrdU-positive cells in transfected cells, % of the value for the untransfected cells (NIH3T3 cells [1]): 24%
cell cycle phase of cells expressing the transfected gene (NIH3T3 cells [2]): arrested in G1 or early S phase
suppression of DNA synthesis [3]: effective
p53 levels in cells that received the gene (p53): increased
